target: MERTK (UniProt Q12866); assay: phosphorylation enrichment, bacterial display (enrichment ratio); higher = better substrate or ligand; peptides without Tyr show the background
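Also: 11-residue human phosphosite peptides and single-mutation variants displayed on the E. coli surface, counted by deep sequencing, each peptide's frequency after selection divided by its frequency in the unselected input library; frequency after pTyr selection over input frequency; kinase dosed for 20-30% of maximal phosphorylation in three min.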

MERTK, sequence (Q12866 whole entry, looked up): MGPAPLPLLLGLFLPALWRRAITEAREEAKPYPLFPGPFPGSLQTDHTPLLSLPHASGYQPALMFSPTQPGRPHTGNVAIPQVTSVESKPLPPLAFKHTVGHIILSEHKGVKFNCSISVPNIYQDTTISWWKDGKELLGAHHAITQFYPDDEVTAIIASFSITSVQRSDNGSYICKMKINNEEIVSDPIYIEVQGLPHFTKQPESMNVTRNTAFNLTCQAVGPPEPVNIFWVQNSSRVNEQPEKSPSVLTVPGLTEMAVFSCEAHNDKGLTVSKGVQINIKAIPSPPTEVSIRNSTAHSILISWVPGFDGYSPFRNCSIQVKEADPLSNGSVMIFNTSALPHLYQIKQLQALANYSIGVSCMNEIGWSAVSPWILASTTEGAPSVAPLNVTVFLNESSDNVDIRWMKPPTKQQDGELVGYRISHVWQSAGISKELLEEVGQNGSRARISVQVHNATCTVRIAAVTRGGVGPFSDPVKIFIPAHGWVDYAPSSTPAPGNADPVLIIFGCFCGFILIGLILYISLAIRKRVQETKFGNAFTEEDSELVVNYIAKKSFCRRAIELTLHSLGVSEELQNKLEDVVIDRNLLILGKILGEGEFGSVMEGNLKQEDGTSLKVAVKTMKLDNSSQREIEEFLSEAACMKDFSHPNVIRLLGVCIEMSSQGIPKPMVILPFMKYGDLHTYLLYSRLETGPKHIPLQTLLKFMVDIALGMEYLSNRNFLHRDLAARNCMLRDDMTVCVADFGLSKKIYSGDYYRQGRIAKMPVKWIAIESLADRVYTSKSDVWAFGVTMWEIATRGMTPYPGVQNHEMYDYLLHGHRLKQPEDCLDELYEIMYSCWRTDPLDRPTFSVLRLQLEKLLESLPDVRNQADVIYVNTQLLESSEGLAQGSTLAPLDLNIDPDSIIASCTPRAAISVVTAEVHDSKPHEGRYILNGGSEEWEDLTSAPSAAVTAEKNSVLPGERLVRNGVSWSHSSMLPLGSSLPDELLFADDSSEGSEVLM

Sequence	phosphorylation enrichment
FSDPDYLAAVD [GLB1_Y154_S149F]	0.42
TLRETYGEMAD [ALB_Y108]	0.454
RSRSSYTHSLN [MYCT1_Y116_G119S]	0.762
DQLVKHGVNPG [TMPO_Y127_Y127H]	0.344
LVPPRYARSEI [PKP2_Y194]	0.528
STGSRYQPLAS [NCAPD2_Y1325]	0.549
EREYKYDAHNY [OAT_Y50_G51D]	0.429
PHMQTYEVDLN [SDHB_Y61]	0.51
EILTQYEAMAS [GFAP_Y242_R239L]	0.471
LITSVYGCSRQ [TMPRSS6_Y290]	0.545
GRVYVYHLSEQ [ITGAE_Y551_R552H]	0.386
CGTPDYIDPEI [PRKCG_Y521_A523D]	0.454
SKGFAYVHFDS [PABPC5_Y149_YF]	0.378
QLCVSYPGGFT [PROS1_Y259_N258S_YF]	0.578
WRPFGYPCRRR [BCS1L_Y181_R183C]	0.509
SGDDGYAKDAQ [TENM4_Y1530_K1535Q]	0.418
ALWFIYSHTRS [ENG_Y614_YF]	0.34
SGADSYEMEED [EGFR_Y316_C311S]	0.722
NFFDTYIKTCL [IQGAP2_Y1445_YF]	0.496
PYYTSYPPSPD [GDAP2_Y491]	9.55
CTTIRYNFMCN [TP53_Y234_H233R_YF]	0.407
LAAAGYDVEKN [H1-3_Y72]	0.54
AKNKDYMSFIR [GNE_Y197_I200F]	0.465
SLIERYEPSET [PLCD1_Y258]	0.727
KSEFAYEIFDK [MYOM2_Y1024_L1022F]	0.967
ELSDGYWVVSN [TPP1_Y459_A454E]	0.396
DVCKNYAKAKD [ALB_Y343_E345K]	0.51
GDEAIYATVAG [NRTKtide_2018]	9.16
RFLRGYRQFAF [HLA-A_Y137_D140Y_YF]	0.587

target: Fyn (UniProt P06241); assay: as above
Sequence (P06241 whole entry, looked up): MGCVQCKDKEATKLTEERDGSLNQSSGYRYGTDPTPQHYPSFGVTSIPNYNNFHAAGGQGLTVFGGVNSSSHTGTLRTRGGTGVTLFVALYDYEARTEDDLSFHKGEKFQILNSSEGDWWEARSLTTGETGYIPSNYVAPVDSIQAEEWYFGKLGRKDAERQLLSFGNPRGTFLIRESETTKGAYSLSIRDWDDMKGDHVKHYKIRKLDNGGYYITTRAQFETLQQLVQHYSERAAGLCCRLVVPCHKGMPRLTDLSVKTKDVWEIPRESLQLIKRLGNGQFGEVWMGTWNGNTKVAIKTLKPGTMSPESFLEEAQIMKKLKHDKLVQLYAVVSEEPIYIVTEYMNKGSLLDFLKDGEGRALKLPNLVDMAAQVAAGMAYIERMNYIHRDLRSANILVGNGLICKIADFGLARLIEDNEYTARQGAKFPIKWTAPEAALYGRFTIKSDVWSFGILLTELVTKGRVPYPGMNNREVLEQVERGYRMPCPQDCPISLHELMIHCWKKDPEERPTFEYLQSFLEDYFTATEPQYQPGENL

Sequence	phosphorylation enrichment
FSDPDYLAAVD [GLB1_Y154_S149F]	0.504
TLRETYGEMAD [ALB_Y108]	0.627
RSRSSYTHSLN [MYCT1_Y116_G119S]	0.63
DQLVKHGVNPG [TMPO_Y127_Y127H]	0.308
LVPPRYARSEI [PKP2_Y194]	0.631
STGSRYQPLAS [NCAPD2_Y1325]	0.433
EREYKYDAHNY [OAT_Y50_G51D]	0.434
PHMQTYEVDLN [SDHB_Y61]	0.906
EILTQYEAMAS [GFAP_Y242_R239L]	0.529
LITSVYGCSRQ [TMPRSS6_Y290]	1.57
GRVYVYHLSEQ [ITGAE_Y551_R552H]	0.835
CGTPDYIDPEI [PRKCG_Y521_A523D]	0.581
SKGFAYVHFDS [PABPC5_Y149_YF]	0.381
QLCVSYPGGFT [PROS1_Y259_N258S_YF]	0.663
WRPFGYPCRRR [BCS1L_Y181_R183C]	0.442
SGDDGYAKDAQ [TENM4_Y1530_K1535Q]	0.508
ALWFIYSHTRS [ENG_Y614_YF]	0.423
SGADSYEMEED [EGFR_Y316_C311S]	0.625
NFFDTYIKTCL [IQGAP2_Y1445_YF]	0.456
PYYTSYPPSPD [GDAP2_Y491]	5.09
CTTIRYNFMCN [TP53_Y234_H233R_YF]	0.521
LAAAGYDVEKN [H1-3_Y72]	0.493
AKNKDYMSFIR [GNE_Y197_I200F]	0.61
SLIERYEPSET [PLCD1_Y258]	0.502
KSEFAYEIFDK [MYOM2_Y1024_L1022F]	0.797
ELSDGYWVVSN [TPP1_Y459_A454E]	0.507
DVCKNYAKAKD [ALB_Y343_E345K]	0.428
GDEAIYATVAG [NRTKtide_2018]	10.7
RFLRGYRQFAF [HLA-A_Y137_D140Y_YF]	0.583

target: FGFR3 (UniProt P22607); assay: as above
Sequence (P22607 whole entry, looked up): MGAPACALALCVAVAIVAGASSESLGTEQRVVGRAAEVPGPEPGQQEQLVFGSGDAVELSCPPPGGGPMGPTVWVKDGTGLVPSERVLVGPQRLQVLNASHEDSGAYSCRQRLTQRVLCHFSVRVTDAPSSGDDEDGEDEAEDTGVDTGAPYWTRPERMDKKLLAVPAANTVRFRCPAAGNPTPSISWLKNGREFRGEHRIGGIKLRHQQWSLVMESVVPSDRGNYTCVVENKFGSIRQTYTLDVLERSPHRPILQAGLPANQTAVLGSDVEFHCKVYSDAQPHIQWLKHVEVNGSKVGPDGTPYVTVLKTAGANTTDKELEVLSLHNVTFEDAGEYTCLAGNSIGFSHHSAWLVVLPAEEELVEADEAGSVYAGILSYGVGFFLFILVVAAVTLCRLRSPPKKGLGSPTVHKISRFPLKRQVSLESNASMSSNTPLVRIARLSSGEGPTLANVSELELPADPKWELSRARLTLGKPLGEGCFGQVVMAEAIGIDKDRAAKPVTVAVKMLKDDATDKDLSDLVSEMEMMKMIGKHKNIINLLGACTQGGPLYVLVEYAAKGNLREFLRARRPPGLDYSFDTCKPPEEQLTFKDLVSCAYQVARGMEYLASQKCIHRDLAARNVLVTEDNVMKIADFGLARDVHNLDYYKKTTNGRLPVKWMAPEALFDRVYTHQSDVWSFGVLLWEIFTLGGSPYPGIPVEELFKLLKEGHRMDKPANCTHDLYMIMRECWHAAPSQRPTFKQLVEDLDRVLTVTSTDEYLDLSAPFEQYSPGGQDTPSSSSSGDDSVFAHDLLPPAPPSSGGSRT

Sequence	phosphorylation enrichment
FSDPDYLAAVD [GLB1_Y154_S149F]	0.691
TLRETYGEMAD [ALB_Y108]	0.836
RSRSSYTHSLN [MYCT1_Y116_G119S]	0.514
DQLVKHGVNPG [TMPO_Y127_Y127H]	0.377
LVPPRYARSEI [PKP2_Y194]	0.941
STGSRYQPLAS [NCAPD2_Y1325]	0.494
EREYKYDAHNY [OAT_Y50_G51D]	0.574
PHMQTYEVDLN [SDHB_Y61]	0.755
EILTQYEAMAS [GFAP_Y242_R239L]	0.608
LITSVYGCSRQ [TMPRSS6_Y290]	1.21
GRVYVYHLSEQ [ITGAE_Y551_R552H]	0.712
CGTPDYIDPEI [PRKCG_Y521_A523D]	1.85
SKGFAYVHFDS [PABPC5_Y149_YF]	0.584
QLCVSYPGGFT [PROS1_Y259_N258S_YF]	0.892
WRPFGYPCRRR [BCS1L_Y181_R183C]	0.462
SGDDGYAKDAQ [TENM4_Y1530_K1535Q]	0.615
ALWFIYSHTRS [ENG_Y614_YF]	0.676
SGADSYEMEED [EGFR_Y316_C311S]	0.871
NFFDTYIKTCL [IQGAP2_Y1445_YF]	0.815
PYYTSYPPSPD [GDAP2_Y491]	3.57
CTTIRYNFMCN [TP53_Y234_H233R_YF]	0.684
LAAAGYDVEKN [H1-3_Y72]	0.658
AKNKDYMSFIR [GNE_Y197_I200F]	0.478
SLIERYEPSET [PLCD1_Y258]	0.678
KSEFAYEIFDK [MYOM2_Y1024_L1022F]	0.664
ELSDGYWVVSN [TPP1_Y459_A454E]	1.21
DVCKNYAKAKD [ALB_Y343_E345K]	0.498
GDEAIYATVAG [NRTKtide_2018]	3
RFLRGYRQFAF [HLA-A_Y137_D140Y_YF]	0.579

target: EPHB2 (UniProt P29323); assay: as above
Sequence (P29323 whole entry, looked up): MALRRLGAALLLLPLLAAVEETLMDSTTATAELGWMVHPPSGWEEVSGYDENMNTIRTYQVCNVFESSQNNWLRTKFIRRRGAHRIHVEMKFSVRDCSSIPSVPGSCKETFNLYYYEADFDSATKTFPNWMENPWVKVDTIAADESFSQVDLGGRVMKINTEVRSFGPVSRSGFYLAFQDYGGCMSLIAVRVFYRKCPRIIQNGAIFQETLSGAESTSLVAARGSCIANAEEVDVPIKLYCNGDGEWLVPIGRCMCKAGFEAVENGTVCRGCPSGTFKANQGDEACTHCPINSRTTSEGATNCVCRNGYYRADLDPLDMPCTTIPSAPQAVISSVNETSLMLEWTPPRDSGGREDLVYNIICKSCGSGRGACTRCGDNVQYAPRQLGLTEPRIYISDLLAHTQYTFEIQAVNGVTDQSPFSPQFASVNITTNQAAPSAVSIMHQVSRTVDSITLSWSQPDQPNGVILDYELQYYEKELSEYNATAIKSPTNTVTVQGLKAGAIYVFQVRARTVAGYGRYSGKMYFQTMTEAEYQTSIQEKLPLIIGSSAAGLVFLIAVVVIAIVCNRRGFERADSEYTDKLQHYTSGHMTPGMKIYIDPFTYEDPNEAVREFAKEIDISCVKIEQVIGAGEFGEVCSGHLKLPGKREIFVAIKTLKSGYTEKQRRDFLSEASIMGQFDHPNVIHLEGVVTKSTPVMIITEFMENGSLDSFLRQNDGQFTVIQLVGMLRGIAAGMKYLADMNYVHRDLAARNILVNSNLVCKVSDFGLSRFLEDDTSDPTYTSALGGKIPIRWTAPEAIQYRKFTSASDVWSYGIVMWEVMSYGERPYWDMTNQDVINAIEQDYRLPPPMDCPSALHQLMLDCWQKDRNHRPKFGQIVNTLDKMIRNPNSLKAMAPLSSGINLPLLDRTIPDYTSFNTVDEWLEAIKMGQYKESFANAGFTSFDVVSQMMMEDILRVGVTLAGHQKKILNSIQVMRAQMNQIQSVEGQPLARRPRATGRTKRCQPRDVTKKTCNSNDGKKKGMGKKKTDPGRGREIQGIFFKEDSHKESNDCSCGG

Sequence	phosphorylation enrichment
FSDPDYLAAVD [GLB1_Y154_S149F]	0.556
TLRETYGEMAD [ALB_Y108]	0.559
RSRSSYTHSLN [MYCT1_Y116_G119S]	0.537
DQLVKHGVNPG [TMPO_Y127_Y127H]	0.304
LVPPRYARSEI [PKP2_Y194]	0.72
STGSRYQPLAS [NCAPD2_Y1325]	0.435
EREYKYDAHNY [OAT_Y50_G51D]	0.575
PHMQTYEVDLN [SDHB_Y61]	0.797
EILTQYEAMAS [GFAP_Y242_R239L]	0.452
LITSVYGCSRQ [TMPRSS6_Y290]	1
GRVYVYHLSEQ [ITGAE_Y551_R552H]	0.548
CGTPDYIDPEI [PRKCG_Y521_A523D]	0.725
SKGFAYVHFDS [PABPC5_Y149_YF]	0.466
QLCVSYPGGFT [PROS1_Y259_N258S_YF]	0.546
WRPFGYPCRRR [BCS1L_Y181_R183C]	0.435
SGDDGYAKDAQ [TENM4_Y1530_K1535Q]	0.394
ALWFIYSHTRS [ENG_Y614_YF]	0.445
SGADSYEMEED [EGFR_Y316_C311S]	0.585
NFFDTYIKTCL [IQGAP2_Y1445_YF]	0.731
PYYTSYPPSPD [GDAP2_Y491]	5.06
CTTIRYNFMCN [TP53_Y234_H233R_YF]	0.613
LAAAGYDVEKN [H1-3_Y72]	0.482
AKNKDYMSFIR [GNE_Y197_I200F]	0.648
SLIERYEPSET [PLCD1_Y258]	0.602
KSEFAYEIFDK [MYOM2_Y1024_L1022F]	0.573
ELSDGYWVVSN [TPP1_Y459_A454E]	0.664
DVCKNYAKAKD [ALB_Y343_E345K]	0.535
GDEAIYATVAG [NRTKtide_2018]	15.5
RFLRGYRQFAF [HLA-A_Y137_D140Y_YF]	0.514

Reference: the supplement of paper PMC10065799, “High-throughput profiling of sequence recognition by tyrosine kinases and SH2 domains using bacterial peptide display” (eLife, 2023)
